Experimental data as given in publication PMC11881899, “Structural insights into promoter-proximal pausing of RNA polymerase II at +1 nucleosome”.

Assays:
[1] = biological target: RNA polymerase II (RNAPII) (Sus scrofa); assay: EMSA; 0.1 uM RNAPII; RNAPII-only EC; EMSA: 20 mM Hepes-NaOH pH 7.5, 5 mM MgCl2, 5% glycerol (buffer J); final 75 mM NaCl, 50 mM KOAc, 0.33 uM Zn(OAc)2, 4 uM ZnCl2; 30 min at 4 C; native 3-8% Tris-acetate PAGE; conditions: protein: native; tags: none; copies: 1;1;1;1;1;1;1;1;1;1;1;1; label: Alexa Fluor 647 on primer RNA; template DNA, nontemplate DNA and primer RNA
[2] = biological target: RNA polymerase II (RNAPII);DSIF (SPT4/SPT5);NELF wild type (NELF-A/B/C/E) (Sus scrofa;human;human, UniProt A0A8D1DPV6;A0A4X1TVZ5;P19387;O15514;A0A4X1VTX4;P61218;P62487;P52434;P36954;P6287 …, ||); assay: EMSA; 0.1 uM RNAPII, 0.4 uM DSIF, 0.4 uM NELF; complete shift; EMSA: 20 mM Hepes-NaOH pH 7.5, 5 mM MgCl2, 5% glycerol (buffer J); final 75 mM NaCl, 50 mM KOAc, 0.33 uM Zn(OAc)2, 4 uM ZnCl2; 30 min at 4 C; native 3-8% Tris-acetate PAGE; conditions: protein: native;recombinant;recombinant; tags: none;N-His SPT4 (His tag TEV-cleaved); C-Strep SPT5;NELF-C C-His6; NELF-E N-FLAG; copies: 1;1;1;1;1;1;1;1;1;1;1;1;1;1;1;1;1;1; label: Alexa Fluor 647 on primer RNA; template DNA, nontemplate DNA and primer RNA
[3] = biological target: RNA polymerase II (RNAPII);DSIF (SPT4/SPT5) (Sus scrofa;human, UniProt A0A8D1DPV6;A0A4X1TVZ5;P19387;O15514;A0A4X1VTX4;P61218;P62487;P52434;P36954;P6287 …, |); assay: EMSA; 0.1 uM RNAPII, 0.4 uM DSIF; lower mobility than RNAPII-only EC; EMSA: 20 mM Hepes-NaOH pH 7.5, 5 mM MgCl2, 5% glycerol (buffer J); final 75 mM NaCl, 50 mM KOAc, 0.33 uM Zn(OAc)2, 4 uM ZnCl2; 30 min at 4 C; native 3-8% Tris-acetate PAGE; conditions: protein: native;recombinant; tags: none;N-His SPT4 (His tag TEV-cleaved); C-Strep SPT5; copies: 1;1;1;1;1;1;1;1;1;1;1;1;1;1; label: Alexa Fluor 647 on primer RNA; template DNA, nontemplate DNA and primer RNA
[4] = biological target: RNA polymerase II (RNAPII);DSIF (SPT4/SPT5);NELF 3E mutant (Sus scrofa;human;human, UniProt A0A8D1DPV6;A0A4X1TVZ5;P19387;O15514;A0A4X1VTX4;P61218;P62487;P52434;P36954;P6287 …, ||K23E;K27E;K34E); assay: EMSA; 0.1 uM RNAPII, 0.4 uM DSIF, 0.4 uM NELF 3E; complex forms similar to wild type; EMSA: 20 mM Hepes-NaOH pH 7.5, 5 mM MgCl2, 5% glycerol (buffer J); final 75 mM NaCl, 50 mM KOAc, 0.33 uM Zn(OAc)2, 4 uM ZnCl2; 30 min at 4 C; native 3-8% Tris-acetate PAGE; conditions: protein: native;recombinant;recombinant; tags: none;N-His SPT4 (His tag TEV-cleaved); C-Strep SPT5;NELF-C C-His6; NELF-E N-FLAG; copies: 1;1;1;1;1;1;1;1;1;1;1;1;1;1;1;1;1;1; label: Alexa Fluor 647 on primer RNA; template DNA, nontemplate DNA and primer RNA

Measured: binding result

B1: DNA/RNA scaffold (EMSA) (mixed)
RNA: UUUUUAUCGAGAGGUAC
DNA 1: CCAAGATGTCAACTCTACCGATAAGCAGACGTACCTCTCGAT
DNA 2: CTGCTTATCGGTAGAGTTGACATCTTGG
binds: [1] | [2] | [3] | [4]
